The text below walks through data of PMC11676163, “Comparison of Two Chelator Scaffolds as Basis for Cholecystokinin-2 Receptor Targeting Bimodal Imaging Probes” (Pharmaceuticals, 2024).

Where “and” joins values, the source holds several entries; their conditions need not be identical. Equal values may be shown once.

A short description of data set [1]: Distribution coefficient (LogD pH7.4), octan-1-ol/PBS. The data set is classed as physicochemical. The conditions noted are these: octan-1-ol/PBS pH 7.4, n = 6. How it is done:
For lipophilicity determination, [^68Ga]Ga-CyTMG and [^68Ga]Ga-CyFMG labelling solutions were diluted with phosphate-buffered saline (PBS, pH7.4) to a concentration of 0.1 µM. A total of 300 µL of this solution was added to an Eppendorf tube containing 300 µL of octan-1-ol. The mixture was shaken at 1400 rpm and at RT for 15 min and centrifuged at 4500× g rpm for 2 min for phase separation. Afterwards, 100 µL of the organic phase and of the aqueous phase were taken out and the activities of the aliquots were quantified in a γ-counter (n = 6). The LogD values were calculated with the following formula:(1) LogDpH7.4=log10  CPMoctanol phase/CPM PBS phase

The next data set can be described thus: physchem. The data set is classed as physicochemical. The conditions noted are these: buffer or solvent, pH 7.4. How it is done:
For stability and protein binding studies, the labelling solutions were diluted with PBS or human serum to a concentration of 0.5 µM and incubated at 37 °C for 1 h, 2 h, and 4 h (n = 3). In the case of serum stability for each timepoint, 100 uL of the incubated solution was diluted 1:1 with ACN to make the proteins precipitate and the solution was centrifuged for 2 min at 14,000× g rpm. A total of 100 uL of the supernatant was then diluted 1:1 with water and analyzed by radio-HPLC. For stability in PBS, 100 uL of the incubated solution was diluted 1:1 with water and analyzed by radio-HPLC for every timepoint.

For the next data set, the system named is A431-CCK2R cells. Nature of the data set: Cell uptake studies on A431-CCK2R cells. The data set is classed as cell-based, human. The conditions noted are these: 0.5 nM, 1 h, 37 °C. An excerpt: (§1) The human squamous carcinoma cell line A431 transfected with human CCK2R (A431-CCK2R) and with the empty vector alone (A431-mock) were originally provided by Dr. Luigi Aloj (Nuclear Medicine Unit, Istituto Nazionale per lo Studio e la Cura dei Tumori “Fondazione Giovanni Pascale”-IRCCS, Naples, Italy). All cell culture media and reagents were purchased from Gibco, Invitrogen (Thermo Fisher Scientific, Vienna, Austria), or Sigma-Aldrich (Darmstadt, Germany) Corporation. Dulbecco's Modified Eagle's medium (DMEM) supplemented with 10% (v/v) fetal bovine serum, FBS (10270, Invitrogen, Thermo Fisher Scientific, Waltham, MA, USA), and 1% (v/v) penicillin-streptomycin-glutamine, PSG (10378, Gibco, Thermo Fisher Scientific, Waltham, MA, USA), was used for cell culture. The cells were grown at 37 °C in a humidified atmosphere with 5% carbon dioxide and were passaged 3 times per week using a 2.5% trypsin-EDTA solution. The cell internalization of the radiolabelled compounds was measured on A431-CCK2R and A431-mock cells. A total of 1.0 × 10^6 cells per well were seeded in 6-well culture plates (Greiner Cellstar, Sigma-Aldrich […] GmbH, Vienna, Austria) and grown for 48 h. On the day of the experiment, each well was washed twice with internalization medium (culturing medium supplemented with 1% (v/v) FBS) and then incubated with 0.5 nM of a radioactive compound for 1 h at 37 °C. After the incubation, the medium was removed and the cells rinsed with 2 × 1 mL of PBS/0.5% (w/v) bovine serum albumin (BSA). Thereafter, they were washed twice with 1 mL of 50 mM glycine buffer (pH 2.8) with 0.1 M NaCl to remove the membrane-bound radiocompound. Finally, the cells were lysed with 2 × 1 mL of 1 M NaOH to determine the internalized radioligand. All fractions were measured in the γ-counter and the percentage of internalized and membrane-bound radiocompounds in relation to the total radioactivity added to the cells was reported.

For a further data set, the system named is A431-mock cells. Nature of the data set: Cell uptake studies on A431-mock cells. Conditions: 0.5 nM, 1 h, 37 °C. The data set is classed as cell-based, human.
Source text: as §1

Data set [2] in a line: in vivo. The conditions noted are these: BALB/c, mouse, total radioactivity. How it is done: For the ex vivo biodistribution study on healthy BALB/c mice, 3 animals per group were injected with 0.14 nmol of radiotracer (1.5 MBq) and then sacrificed after 1, 2, and 4 h. The organs of interest were extracted, weighed, and measured in the γ-counter. Results were expressed as percentages of injected dose per gram tissue (% ID/g).

Data set [3] can be described thus: in vivo. Conditions: athymic BALB/c nude, mouse, total radioactivity. How it is done: (§2) For the induction of tumour xenografts, 2 × 10^6 of A431-CCK2R or A431-mock cells in 200 μL appropriate medium and Matrigel (1:1) were subcutaneously injected in the right and left flank of each mouse (athymic BALB/c nude), respectively. The tumours were allowed to grow until they had reached a volume of 0.3 to 0.6 cm^3. To evaluate ex vivo biodistribution on tumour models, 3 mouse xenografts were injected with 0.05 nmol of radiotracer (1 MBq) and then sacrificed after 2 h. For the comparative imaging study (PET/CT and in vivo fluorescence imaging), 2 xenograft-bearing mice were injected with 0.3 nmol (6 MBq) of radiotracer. Static PET/CT images of the anesthetized animals in prone position were acquired with a Mediso NanoScan PET/CT small-animal imaging system (Mediso Medical Imaging Systems, Budapest, Hungary) at 1, 2, and 3 h p.i. Image reconstruction was performed via Mediso Tera-Tomo 3D PET iterative reconstruction (Mediso Medical Imaging Systems, Budapest, Hungary). The images were visualized, processed, and quantified in Mediso InterView FUSION (Mediso Medical Imaging Systems, Budapest, Hungary). Quantitative analyses were performed on images of 3 mouse xenografts per compound. The images were normalized to injected activity and animal weight. The results were expressed as percentages of injected dose per gram tissue (% ID/g).

In data set [4] the test system is A431-CCK2R / A431-mock xenografts. In words: in vivo. Conditions: mouse. How it is done:
as §2

Data set [5] shares this test system. The data set is classed as in vivo, mouse. Conditions: for Time after injection from which cancerous tissue could be well delineated by fluorescence imaging: A431-CCK2R xenografts, 0.3 nmol; for Persistence of fluorescence signal in the kidneys: mouse, in vivo. How it is done:
as §2
Near-infrared in vivo fluorescence imaging was conducted with an in vivo MS FX PRO small-animal imaging system (Bruker Biospin Corporation, Woodbridge, CT, USA) and image analysis was performed with Bruker MI SE software v. 7.1.1.20220 (Bruker Biospin Corporation, Woodbridge, CT, USA). The mice were positioned in the system in supine position and scanned at various time intervals up to 72 h p.i. by using an appropriate filter set (excitation = 650 nm and emission = 700 nm) and identical illumination settings (acquisition time = 30 s, f-stop = 2.8, field of view = 100 mm, and binning = 4 × 4). The fluorescence emission was reported as photons/s/mm^2.

Another data set has as its target T1, CCK2 receptor (Homo sapiens, UniProt P32239).
T1 construct: expressed in transfected cells; host or cells: A431 human squamous carcinoma cells (A431-CCK2R), provided by Dr. Luigi Aloj
T1 sequence (P32239 1-447): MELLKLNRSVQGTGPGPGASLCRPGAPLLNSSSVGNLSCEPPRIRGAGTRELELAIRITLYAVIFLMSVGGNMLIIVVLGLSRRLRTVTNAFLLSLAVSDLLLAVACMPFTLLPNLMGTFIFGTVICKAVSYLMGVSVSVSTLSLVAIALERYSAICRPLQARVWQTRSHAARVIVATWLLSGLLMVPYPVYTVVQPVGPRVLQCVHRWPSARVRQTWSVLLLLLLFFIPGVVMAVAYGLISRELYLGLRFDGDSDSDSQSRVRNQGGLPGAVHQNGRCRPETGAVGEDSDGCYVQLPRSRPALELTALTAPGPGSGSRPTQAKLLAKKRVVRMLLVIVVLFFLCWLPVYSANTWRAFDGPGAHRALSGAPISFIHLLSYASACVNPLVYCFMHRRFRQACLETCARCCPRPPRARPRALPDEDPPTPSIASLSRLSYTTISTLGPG
Nature of the data set: Receptor-binding affinity, competition against [^177Lu]Lu-DOTA-MGS5 on A431-CCK2R cells. The conditions noted are these: metal-free compounds, vs [^177Lu]Lu-DOTA-MGS5, 1 h RT.

The mark [6] stands for this setting: Accumulation of radioactivity in A431-CCK2R xenografts.
The mark [7] stands for this setting: Accumulation of radioactivity in A431-mock tumours.

A word on the share remaining: it is what is left of the initial amount, in per cent. By tissue uptake is commonly meant the share of the injected amount in each gram of the tissue. Broadly, the IC50 is the concentration needed to halve the response being measured. A higher IC50 goes with a need for much substance.

Experimental for CCK2 receptor: A total of 5 µg of DOTA-MGS5 were radiolabelled with 20 µL of [^177Lu]LuCl3 solution (300–400 MBq; 90–95 GBq/µmol) and 30 µL of 0.4 M sodium acetate/0.24 M gentisic acid solution with pH 5. The labelling mixture was heated at 90 °C for 20 min. At the end, the solution was diluted to a concentration of 200 nM and stored in a freezer for further use. Binding assays were carried out in 96-well filter plates (Multi-ScreenHTS-FB, Merck Group, Darmstadt, Germany) pretreated with 10 mM TRIS/139 mM NaCl buffer at pH 7.4 (TRIS-buffer) (2 × 250 μL) before 400,000 A431-CCK2R cells per well were added in 20 mM HEPES buffer at pH 7.4 containing 10 mM MgCl2, 14 μM bacitracin, and 0.5% (w/v) bovine serum albumin (BSA) (binding assay buffer). Competition assays were performed two times in triplicate using increasing concentrations of competitors (0.001–1,000 nM) and a constant amount of radioligands (~30,000 cpm, 0.3 nM). After 1 h of incubation at room temperature (RT), the medium was removed by vacuum filtration and the filters were rapidly rinsed with ice-cold binding assay buffer (2 × 200 μL), removed, and counted in the γ-counter. Half-maximal inhibitory concentration (IC50) values were calculated following non-linear regression with Origin software (MicroCal Origin 6.1, Northampton, MA, USA).

With `CCCC[C@@H](C(=O)N[C@@H](CC(=O)O)C(=O)N[C@@H](Cc1cccc2ccccc12)C(N)=O)N(C)C(=O)[C@H](Cc1c[nH]c2ccccc12)NC(=O)CCOCCOCCOCCOCCn1cc(CNC(=O)CCP(=O)(O)CN2CCN(CP(=O)(O)CCC(=O)NCc3cn(CCCNC(=O)CCCCC[N+]4=C(C=CC=CC=C5N(C)c6ccc7c(S(=O)(=O)O)cc(S(=O)(=O)O)cc7c6C5(C)C)C(C)(C)c5c4ccc4c(S(=O)(=O)O)cc(S(=O)(=O)O)cc54)nn3)CCN(CP(=O)(O)CCC(=O)NCc3cn(CCOCCOCCOCCOCCC(=O)N[C@@H](Cc4c[nH]c5ccccc45)C(=O)N(C)[C@@H](CCCC)C(=O)N[C@@H](CC(=O)O)C(=O)N[C@@H](Cc4cccc5ccccc45)C(N)=O)nn3)CC2)nn1` (single isomer, unassigned) [[^68Ga]Ga-CyTMG, metal not drawn], in data set [1], the “LogDpH7.4 ± SD” value is −1.78 ± 0.16. Further, in the data set “physchem”, the amount remaining at 1 h, 0.5 µM amounted to 97.98 ± 0.2%; the amount remaining at 2 h, 0.5 µM was 97.56 ± 0.09%; the fraction remaining at 4 h, 0.5 µM was 96.7 ± 1.15%. Moreover, in the data set with A431-CCK2R cells, the “Internalized fraction, % of total activity” value (from here on “Internalized fraction, %”) is 10.59 ± 0.40% and 10.6%; the “Membrane bound, % of total activity” value turned out to be 0.8%. In addition, in the data set with A431-mock cells, the “Internalized fraction, %” value is 0.2% and the “Membrane bound, % of total activity” value amounted to 0.5%. In “in vivo [2]”, the tissue uptake at 1 h came to 75.8 ± 3.88 %ID/g, the tissue uptake at 2 h was determined as 124 ± 6.46 %ID/g and the tissue uptake at 4 h was found to be 173 ± 13 %ID/g. For the same compound, the tissue uptake at 2 h in “in vivo [3]” (0.05 nmol, Kidney uptake) was found to be 119 ± 9.12 %ID/g. The tissue uptake at 2 h in the data set “in vivo [3]” (setting [6]) came to 6.47 ± 1.47 %ID/g. For the same compound, the tissue uptake at 2 h in “in vivo [3]” (setting [7]) is 2.46 ± 0.4 %ID/g. Besides, the “Ratio of CCK2R-positive tumours and A431-mock xenografts” value in data set [4] was determined as 2.63. Besides, in data set [5], the “Time after injection from which cancerous tissue could be well delineated by fluorescence imaging” value is not below 1 h and the “Persistence of fluorescence signal in the kidneys” value was “up to 72 h”.

As to `CCCC[C@@H](C(=O)N[C@@H](CC(=O)O)C(=O)N[C@@H](Cc1cccc2ccccc12)C(N)=O)N(C)C(=O)[C@H](Cc1c[nH]c2ccccc12)NC(=O)CCOCCOCCOCCOCCn1cc(CNC(=O)CCP(=O)(O)CN2CCN(CP(=O)(O)CCC(=O)NCc3cn(CCCNC(=O)CCCCC[N+]4=C(C=CC=CC=C5N(C)c6ccc7c(S(=O)(=O)O)cc(S(=O)(=O)O)cc7c6C5(C)C)C(C)(C)c5c4ccc4c(S(=O)(=O)O)cc(S(=O)(=O)O)cc54)nn3)CCN(CP(=O)(O)CCC(=O)NCc3cn(CCOCCOCCOCCOCCC(=O)N[C@@H](Cc4c[nH]c5ccccc45)C(=O)N(C)[C@@H](CCCC)C(=O)N[C@@H](CC(=O)O)C(=O)N[C@@H](Cc4cccc5ccccc45)C(N)=O)nn3)CC2)nn1` (single isomer, unassigned) [CyTMG], at CCK2 receptor, the IC50 came out at 0.24 ± 0.16 nM.

`CCCC[C@@H](C(=O)N[C@@H](CC(=O)O)C(=O)N[C@@H](Cc1cccc2ccccc12)C(N)=O)N(C)C(=O)[C@H](Cc1c[nH]c2ccccc12)NC(=O)CCOCCOCCOCCOCCn1cc(CCC(=O)N[C@H]2CCCN(O)C(=O)/C=C(/C)CCOC(=O)[C@@H](NC(=O)CCc3cn(CCOCCOCCOCCOCCC(=O)N[C@@H](Cc4c[nH]c5ccccc45)C(=O)N(C)[C@@H](CCCC)C(=O)N[C@@H](CC(=O)O)C(=O)N[C@@H](Cc4cccc5ccccc45)C(N)=O)nn3)CCCN(O)C(=O)/C=C(/C)CCOC(=O)[C@@H](NC(=O)CCc3cn(CCCNC(=O)CCCCC[N+]4=C(/C=C/C=C/C=C5/N(C)c6ccc7c(S(=O)(=O)O)cc(S(=O)(=O)[O-])cc7c6C5(C)C)C(C)(C)c5c4ccc4c(S(=O)(=O)O)cc(S(=O)(=O)O)cc54)nn3)CCCN(O)C(=O)/C=C(/C)CCOC2=O)nn1` [[^68Ga]Ga-CyFMG, metal not drawn]: in [1], the “LogDpH7.4 ± SD” value is listed as −1.53 ± 0.10. Further, in “physchem”, the amount remaining at 1 h, 0.5 µM came out at 99.1 ± 1.07%; the share remaining at 2 h, 0.5 µM came to 98.57 ± 0.47%; the fraction remaining at 4 h, 0.5 µM is 99.3 ± 0.71%. In addition, in the data set on A431-CCK2R cells, the “Internalized fraction, %” value was 24.48 ± 1.33% and 24.5%; the “Membrane bound, % of total activity” value is listed as 0.9%. In the data set on A431-mock cells, the “Internalized fraction, %” value is reported as 1.3% and the “Membrane bound, % of total activity” value amounted to 0.7%. In addition, in “in vivo [2]”, the tissue uptake at 1 h is 45.9 ± 3.03 %ID/g, the tissue uptake at 2 h was 59.3 ± 5.04 %ID/g and the tissue uptake at 4 h is 74.3 ± 11.7 %ID/g. Further, the tissue uptake at 2 h in “in vivo [3]” (0.05 nmol, Kidney uptake) was 50.7 ± 8.42 %ID/g. Also, the tissue uptake at 2 h in the data set “in vivo [3]” (setting [6]) is 4.02 ± 1.64 %ID/g. The tissue uptake at 2 h in “in vivo [3]” (setting [7]) came out at 1.02 ± 0.13 %ID/g. Further, in [4], the “Ratio of CCK2R-positive tumours and A431-mock xenografts” value is 3.94. In addition, in data set [5], the “Time after injection from which cancerous tissue could be well delineated by fluorescence imaging” value is on record as not below 3 h and the “Persistence of fluorescence signal in the kidneys” value is recorded as “visibly declined from 24 h to disappear completely at 72 h after injection”.
